Test results taken from US7038112B2, “Fatty acid elongases” (Miami University, priority 1997, dated 2006).
Like-named read-outs stand apart in the source and are kept apart here.

Assays:
[1] = assay type: biochemical, Saccharomyces cerevisiae; conditions: for (%) 20:1 acyl CoA / (%) 22:1 acyl CoA / (%) 24:1 acyl CoA / (%) 26:1 acyl CoA / (%) Total / Rate, 20:1 acyl CoA / Rate, 22:1 acyl CoA / Rate, 24:1 acyl CoA / Rate, 26:1 acyl CoA / Rate, Total: second experiment
Method: (§1) Transformed yeast cells were grown in the presence of either glucose or galactose (2% w/v) as described in Example 1. Cells were harvested by centrifugation at 5000×g for 10 min and washed with 10 ml ice cold isolation buffer (IB), which contains 80 mM Hepes-KOH, pH 7.2, 5 mM EGTA, 5 mM EDTA, 10 mM KC1, 320 mM sucrose and 2 mM DTT). Cells were then resuspended in enough IB to fill a 1.7 ml tube containing 700 μl of 0.5 μm glass beads and yeast microsomes were isolated from the cells essentially as described in Tillman, T. and Bell, R., J. Biol. Chem. 261:9144–9149 (1986). The microsomal membrane pellet was recovered by centrifugation at 252,000×g for 60 min. The pellet was rinsed by resuspending in 40 ml fresh IB and again recovered by centrifugation at 252000×g for 60 min. Microsomal pellets were resuspended in a minimal volume of IB, and the protein concentration adjusted to 2.5 μg μl^−1 by addition of IB containing 15% glycerol. Microsomes were frozen on dry ice and stored at −80° C. The protein concentration in microsomes was determined by the Bradford method (Bradford, 1976).
(§2) Fatty acid elongase activity was measured essentially as described in Hlousek-Radojcic, A. et al., Plant J. 8:803–809 (1995). Briefly, the standard elongation reaction mix contained 80 mM Hepes-KOH, pH 7.2, 20 mM MgCl2, 500 μM NADPH, 1 mM ATP, 100 μM malonyl-CoA, 10 μM CoA-SH and 15 μM radioactive acyl-CoA substrate. The radiolabeled substrate was either [1^−14C]18:1-CoA (50 uCi μmol^−1), [1^−14C]18:0-CoA (55 uCi μmol^−1), or [1^−14C]16:0-CoA (54 uCi μmol^−1). The reaction was initiated by the addition of yeast microsomes (5 μg protein) and the mixture incubated at 30° C. for the indicated period of time. The final reaction volume was 25 μl.
(§3) Methyl esters of the acyl-CoA elongation products were prepared as described in Example 1. Methyl esters were separated on reversed phase silica gel KC18 TLC plates (Whatman, […] thick), quantified by phosphorimaging, and analyzed on by ImageQuant software (Molecular Dynamics, Inc., Sunnyvale, Calif.). The detection limit for each product is about 0.001 nanomoles per min. per mg microsomal protein, depending on the phosphorimage exposure time.
(§4) Yeast cultures containing full-length EL1 in λYES and full-length EL2 in pYEUra3 were grown in the presence of galactose or glucose as described in Example 2. Microsomes were then prepared from each of the cultures and fatty acid elongation assays were carried out as described in Example 2.
(§5) In the first experiment, microsomes were prepared from galactose-induced cultures of EL1, EL2 and FAE1, and incubated with either [1-^14C] 18:0 acyl-CoA or [1-^14C] 18:1 acyl-CoA as substrate. The amounts of various reaction products synthesized after 30 minutes (min) were determined as described in Example 2.
(§6) In a second experiment, microsomes were prepared from galactose-induced and from glucose-repressed yeast cultures containing EL1 or EL2 coding sequences. The microsomal preparations were incubated with either 18:0 acyl-CoA or 18:1 acyl-CoA as substrate and the fatty acid reaction products determined as described above.

[2] = In vitro fatty acid elongation assay with yeast microsomes, 18:0 acyl-CoA substrate; assay type: biochemical, Saccharomyces cerevisiae; conditions: for (%) 20:0 acyl CoA / (%) 22:0 acyl CoA / (%) 24:0 acyl CoA / (%) 26:0 acyl CoA / (%) Total / Rate, 20:0 acyl CoA / Rate, 22:0 acyl CoA / Rate, 24:0 acyl CoA / Rate, 26:0 acyl CoA / Rate, Total: second experiment
Method: as §1, §2, §3, §4, §5
as §6, with “above. […]” for “above.”

[3] = 18:1-CoA substrate, +Galactose (induced)
[4] = 18:1-CoA substrate, +Glucose (uninduced)
[5] = 18:1-CoA substrate, galactose-induced, 30 min, first experiment
[6] = 18:0-CoA substrate, +Galactose (induced)
[7] = 18:0-CoA substrate, +Glucose (uninduced)
[8] = 18:0-CoA substrate, galactose-induced, 30 min, first experiment
[9] = +Gal, standard reaction mix, average of two experiments
[10] = +Glu, standard reaction mix, one experiment
[11] = galactose-induced, −A&C (ATP and Coenzyme A omitted), average of two experiments
[12] = galactose-induced, −ATP, average of two experiments
[13] = galactose-induced, −CoA, average of two experiments

B1: EL2: Arabidopsis β-keto acyl synthase gene product (SEQ ID NO:4) expressed in yeast microsomes (protein, listed as Arabidopsis thaliana)
chain: MDYPMKKVKIFFNYLMAHRFKLCFLPLMVAIAVEASRLSTQDLQNFYLYLQNNHTSLTMFFLYLALGSTLYLMTRPKPVYLVDFSCYLPPSHLKASTQRIMQHVRLVREAGAWKQESDYLMDFCEKILERSGLGQETYVPEGLQTLPLQQNLAVSRIETEEVIIGAVDNLFRNTGISPSDIGILVVNSSTFNPTPSLSSILVNKFKLRDNIKSLNLGGMGCSAGVIAIDAAKSLLQVHRNTYALVVSTENITQNLYMGNNKSMLVTNCLFRIGGAAILLSNRSIDRKRAKYELVHTVRVHTGADDRSYECATQEEDEDGIVGVSLSKNLPMVAARTLKINIATLGPLVLPISEKFHFFVRFVKKKFLNPKLKHYIPDFKLAFEHFCIHAGGRALIDEMEKNLHLTPLDVEASRMTLHRFGNTSSSSIWYELAYTEAKGRMTKGDRIWQIALGSGFKCNSSVWVALRNVKPSTNNPWEQCLHKYPVEIDIDLKE
With B1 the “increase in 18:1 CoA elongation, microsomes from induced vs uninduced cells” value [1] was roughly 2 fold, the “(%) 20:1 acyl CoA” value [1, 3] was 100.0% and the “(%) 22:1 acyl CoA” value [1, 3] was 0.0%. The “(%) 24:1 acyl CoA” value [1, 3] was 0.0%, the “(%) 26:1 acyl CoA” value [1, 3] was 0.0% and the “(%) Total” value [1, 3] was 100.0%. For the same molecule, the “Rate, 20:1 acyl CoA” value [1, 3] was 0.089 Nanomoles/minute/mg of microsomal protein, the “Rate, 22:1 acyl CoA” value [1, 3] was 0.000 Nanomoles/minute/mg of microsomal protein and the “Rate, 24:1 acyl CoA” value [1, 3] was 0.000 Nanomoles/minute/mg of microsomal protein. For the same molecule, the “Rate, 26:1 acyl CoA” value [1, 3] was 0.000 Nanomoles/minute/mg of microsomal protein, the “Rate, Total” value [1, 3] was 0.089 Nanomoles/minute/mg of microsomal protein and the “(%) 20:1 acyl CoA” value [1, 4] was 100.0%. For the same molecule, the “(%) 22:1 acyl CoA” value [1, 4] was 0.0%, the “(%) 24:1 acyl CoA” value [1, 4] was 0.0% and the “(%) 26:1 acyl CoA” value [1, 4] was 0.0%. For the same molecule, the “(%) Total” value [1, 4] was 100.0%, the “Rate, 20:1 acyl CoA” value [1, 4] was 0.043 Nanomoles/minute/mg of microsomal protein and the “Rate, 22:1 acyl CoA” value [1, 4] was 0.000 Nanomoles/minute/mg of microsomal protein. For the same molecule, the “Rate, 24:1 acyl CoA” value [1, 4] was 0.000 Nanomoles/minute/mg of microsomal protein, the “Rate, 26:1 acyl CoA” value [1, 4] was 0.000 Nanomoles/minute/mg of microsomal protein and the “Rate, Total” value [1, 4] was 0.043 Nanomoles/minute/mg of microsomal protein. For the same molecule, the “(%) 20:1 acyl-CoA product” value [1, 5] was 84.1%, the “(%) 22:1 acyl-CoA product” value [1, 5] was 15.9% and the “(%) 24:1 acyl-CoA product” value [1, 5] was 0.0%. The “(%) 26:1 acyl-CoA product” value [1, 5] was 0.0%, the “(%) Total acyl-CoA products” value [1, 5] was 100.0% and the “Rate, 20:1 acyl-CoA product” value [1, 5] was 0.091 Nanomoles/minute/mg of microsomal protein. The “Rate, 22:1 acyl-CoA product” value [1, 5] was 0.017 Nanomoles/minute/mg of microsomal protein, the “Rate, 24:1 acyl-CoA product” value [1, 5] was 0.0 Nanomoles/minute/mg of microsomal protein and the “Rate, 26:1 acyl-CoA product” value [1, 5] was 0.0 Nanomoles/minute/mg of microsomal protein. The “Rate, Total acyl-CoA products” value [1, 5] was 0.108 Nanomoles/minute/mg of microsomal protein, the “(%) 20:0 acyl CoA” value [2, 6] was 43.1% and the “(%) 22:0 acyl CoA” value [2, 6] was 17.8%. The “(%) 24:0 acyl CoA” value [2, 6] was 19.1%, the “(%) 26:0 acyl CoA” value [2, 6] was 20.0% and the “(%) Total” value [2, 6] was 100.0%. The “Rate, 20:0 acyl CoA” value [2, 6] was 0.107 Nanomoles/minute/mg of microsomal protein, the “Rate, 22:0 acyl CoA” value [2, 6] was 0.044 Nanomoles/minute/mg of microsomal protein and the “Rate, 24:0 acyl CoA” value [2, 6] was 0.048 Nanomoles/minute/mg of microsomal protein. For the same molecule, the “Rate, 26:0 acyl CoA” value [2, 6] was 0.050 Nanomoles/minute/mg of microsomal protein, the “Rate, Total” value [2, 6] was 0.249 Nanomoles/minute/mg of microsomal protein and the “(%) 20:0 acyl CoA” value [2, 7] was 81.3%. For the same molecule, the “(%) 22:0 acyl CoA” value [2, 7] was 5.1%, the “(%) 24:0 acyl CoA” value [2, 7] was 13.6% and the “(%) 26:0 acyl CoA” value [2, 7] was 0.0%. For the same molecule, the “(%) Total” value [2, 7] was 100.0%, the “Rate, 20:0 acyl CoA” value [2, 7] was 0.030 Nanomoles/minute/mg of microsomal protein and the “Rate, 22:0 acyl CoA” value [2, 7] was 0.002 Nanomoles/minute/mg of microsomal protein. The “Rate, 24:0 acyl CoA” value [2, 7] was 0.005 Nanomoles/minute/mg of microsomal protein, the “Rate, 26:0 acyl CoA” value [2, 7] was 0.000 Nanomoles/minute/mg of microsomal protein and the “Rate, Total” value [2, 7] was 0.037 Nanomoles/minute/mg of microsomal protein. For the same molecule, the “effect of omission of ATP and/or CoA on overall amounts of VLCFAs synthesized” value ([2]; 18:0-CoA substrate, galactose-induced) was “does not have a significant effect”, the “(%) 20:0 acyl-CoA product” value [2, 8] was 41.8% and the “(%) 22:0 acyl-CoA product” value [2, 8] was 20.7%. For the same molecule, the “(%) 24:0 acyl-CoA product” value [2, 8] was 20.3%, the “(%) 26:0 acyl-CoA product” value [2, 8] was 17.2% and the “(%) Total acyl-CoA products” value [2, 8] was 100.0%. The “Rate, 20:0 acyl-CoA product” value [2, 8] was 0.108 Nanomoles/minute/mg of microsomal protein, the “Rate, 22:0 acyl-CoA product” value [2, 8] was 0.053 Nanomoles/minute/mg of microsomal protein and the “Rate, 24:0 acyl-CoA product” value [2, 8] was 0.052 Nanomoles/minute/mg of microsomal protein. The “Rate, 26:0 acyl-CoA product” value [2, 8] was 0.044 Nanomoles/minute/mg of microsomal protein, the “Rate, Total acyl-CoA products” value [2, 8] was 0.258 Nanomoles/minute/mg of microsomal protein and the “20:0 product as a percent of total products formed” value (shortened to “20:0 product as a percent”) [2, 9] was 47.1%. For the same molecule, the “22:0 product as a percent of total products formed” value (“22:0 product as a percent” for short) [2, 9] was 19.1%, the “24:0 product as a percent of total products formed” value (“24:0 product as a percent” below) [2, 9] was 19.4% and the “26:0 product as a percent of total products formed” value (shortened to “26:0 product as a percent”) [2, 9] was 14.5%. For the same molecule, the “Total products as a percent of total products formed” value (“Total products as a percent” for short) [2, 9] was 100.0%, the “20:0 product as a percent” value [2, 10] was 54.5% and the “22:0 product as a percent” value [2, 10] was 17.1%. For the same molecule, the “24:0 product as a percent” value [2, 10] was 5.8%, the “26:0 product as a percent” value [2, 10] was 22.6% and the “Total products as a percent” value [2, 10] was 100.0%. For the same molecule, the “increase in overall elongase activity on induction with galactose, 18:0 acyl CoA substrate” value ([2]; galactose-induced vs glucose) was roughly 7 fold, the “20:0 product as a percent” value [2, 11] was 38.0% and the “22:0 product as a percent” value [2, 11] was 15.9%. The “24:0 product as a percent” value [2, 11] was 18.4%, the “26:0 product as a percent” value [2, 11] was 27.8% and the “Total products as a percent” value [2, 11] was 100.0%. The “20:0 product as a percent” value [2, 12] was 34.1%, the “22:0 product as a percent” value [2, 12] was 16.4% and the “24:0 product as a percent” value [2, 12] was 20.8%. For the same molecule, the “26:0 product as a percent” value [2, 12] was 28.9%, the “Total products as a percent” value [2, 12] was 100.0% and the “20:0 product as a percent” value [2, 13] was 45.3%. For the same molecule, the “22:0 product as a percent” value [2, 13] was 19.2%, the “24:0 product as a percent” value [2, 13] was 19.9% and the “26:0 product as a percent” value [2, 13] was 15.8%. The “Total products as a percent” value [2, 13] was 100.0% and the “18:0-CoA elongation activity, +Glu” value ([2]; microsomes from glucose-grown cultures, standard reaction mix) was “.033 nanomoles/minute/mg of microsomal protein”.
